To fix the notation:
B1: Yokose virus (nucleic acid, listed as Yokose virus)
DNA: AGTAAATTTTGCGTGCTAGTCGCTGAGCGTCAGACCGCAAAGTGAGTTTTTAGTGATCTAAAGTGAGGAGTTATTCTTACTGTCATCAAACACTACAAATAAACACGTTGAAATTATTTCCGGAAGAACAACTGTCCGGAATCAAAGACG
B2: Bussuquara virus (nucleic acid)
DNA: AGTATTTCTTCTGCGTGAGACCATTGCGACAGTTCGTACCGGTGAGTTTTGACTTAACGCAGTGAGAAAAGTTTTCGAGGAAAGACGAGAAGCGAATTCTCTGA
modifications: chemistry not fully specified; the letters are possibly those of the target site
B3: Zika Virus (nucleic acid, listed as Zika virus)
DNA: AGTTGTTGATCTGTGTGAGTCAGACTGCGACAGTTCGAGTCTGAAGCGAGAGCTAACAACAGTATCAACAGGTTTAATTTGGATTTGGAAACGAGAGTTTCTGGTC
modifications: chemistry not fully specified; the letters are possibly those of the target site
B4: Equine Pegivirus 1 (nucleic acid, listed as Pegivirus sp.)
DNA: AGAATGGGGAGTTAACTCCTGGCACTGGCCCGAAGCATGAACTGATCGCGGTGGCAGGGTTCTTCGGGTAAATCCCGGCCGCGTGTTGTGATTGTGTTAGGGCAGGTGACAGTCGGCAGGGTCGACCCCCTGCTTCAGGACCACTGTCTTCCTGGACGACCGTTGCTGAAAAAGGGCCGCCACGGTCTGTAGCTCGCCGACGCTTCTAATTCAGGCCGGAGGACCACGCTCCGTAATCGAGCCCAAGTACTCAAACCCCAGCACCCCTGGGTCACGCCCTACGCCGCCCTTTTAACGCTTCGGCTAATAGGGTCTATCCGGCGGGTTGACAAAGGGCGCAGGGTTACCTGGTACTACGAGCTTGGGTGTCCCTGGGAGTAATCCCAGGGTGCC
B5: GB virus C/Hepatitis G virus (nucleic acid)
DNA: CCCCCGGCACTGGGTGCAAGCCCCAGAAACCGACGCCTATCTAAGTAGACGCAATGACTCGGCGCCGACTCGGCGACCGGCCAAAAGGTGGTGGATGGGTGATGACAGGGTTGGTAGGTCGTAAATCCCGGTCACCTTGGTAGCCACTATAGGTGGGTCTTAAGAGAAGGTTAAGATTCCTCTTGTGCCTGCGGCGAGACCGCGCACGGTCCACAGGTGTTGGCCCTACCGGTGGGAATAAGGGCCCGACGTCAGGCTCGTCGTTAAACCGAGCCCGTTACCCACCTGGGCAAACGACGCCCACGTACGGTCCACGTCGCCCTTCAATGTCTCTCTTGACCAATAGGCGTAGCCGGCGAGTTGACAAGGACCAGTGGGGGCCGGGGGCTTGGAGAGGGACTCCAAGTCCCGCCCTTCCCGGTGGGCCGGGAAATGC
B6: Culex theileri flavivirus (nucleic acid, listed as Flavivirus sp.)
DNA: ATATAAATCCCAGTTTGGTTAAACCTATTTCAAGGCTTAAGTTGTTTATTATTTTATCGCCGCTCGTGACTATAAAGTTGCCTAGCGGAGAGAGATAAAGAAGAAGGAGTTCAAGGCTCAGGGCAGGGCGCAAGTTCCCTGGTCCCTAGGCCGCTCGCAGGAAGGAGGAGTGAAGAAGAAGAAAGAGAAGGAGAGGACCACCGCCGAAAGAAGGCAGGTGCCTCACAAGAGGGCCAACCAGCGTGTTGGACCAGTGGCCAACGCCGGACGGCGTGGTGGCCTGCTGGGACGCCTGGGGATTGGATGGAGTGCCTTCCTACAGGAAGACATCGTTCAAGCCATC

The data set has as its system HEK293 cells. Type of data set: cell-based, human. The following applies: luminescence from secreted Gluc in supernatant 24 hours after transfection of HEK293 cells; circular RNA encoding Gluc with the named IRES (UTR truncated to 675 nt).
On to B1, for which the Expression worked out at 8.55E+04.
The same measure for B2: 8.20E+04; for B3: 8.61E+04; for B4: 8.80E+04.
As for B5, the figure is 1.36E+05; as for B6, 8.52E+04.
